Data taken from PMC8395731.

Molecular target: 6xHis-tagged mTOR fragment ∆N-FAT-M (human) (UniProt P42345)
Experiment: BLI; BLItz; His-tagged mTOR fragments (1 µM) immobilised on Ni-NTA biosensors, tagless RHEB as analyte (0.5 and 1 µM, or 0.05 and 0.1 µM for ∆ATP), no GTP; 10 mM HEPES pH 7.4, 100 mM NaCl, 0.02% Tween-20, 5 mg/mL BSA, 25 °C; global 1:1 fit

6xHis-tag cleaved-RHEB (from UniProt Q15382 1-169) (natural protein)
Kd: 1260 nM
